Experimental data as given in the DeepSol protein solubility set.

assay: soluble on expression in E. coli; label from the status in PepcDB or PDB records

Sequence | soluble on expression in E. coli
MLKSILRGALVATKPGPARRQFSFTALLRSETQPKEIINLERVQVRKMKKRRPVASSVVPKSLREPSVVAMALSESLNLNEVIMDAQLNGMYNITAIDEDADDSLHFVKKLEYTINPGELSEIFVFRDGVVVFWNVDSSQRSHILRELERYADAPYDSMIVMDEQDRMFYKFSEQSTGSTIRQDRFYLSGKHLDAFHGSNEAILERFALSQGFAASVKIGVWESLLNNLAEPLSNTTKSLTLGKIPWSRKQALMRSGEFAALRHSINLDCTLLNKDFYWERPELEKYYTMTGRHFSLDRRIGLLNKRLDYCEELVKMVDNTIALRHASHLEWMIIVLIVIEVIFDVFHFADKTPKSVMIVPDSSKAQQLRNEGN | not soluble
GPGSMAETRKEEWSEPEVPGGRSEVVAGIKRRREKLELYQSASHKMKALMMNSAGIRSGLGANNELPVNPIWMKFPTRCVKPIHSVEEMREKLHYFSHSDDVMVVRYHQENCTACNALDKTFEFLCHQSADRYPNLKFYEVSKDATPQLTRNLVRYPQVKGFSGGHWTDLEFKPPAEFREELYSGVEREVTRRKREGQPVTALEAEEMYYSSAGPAMAQVLEESVVKFYCKAQARLHNYWKQVSVRRAWFFRKFVEPKVDDQVRDEWRLKSVFGEKLSYGPEPQMEEF | not soluble
RDIIQYIPARSSYGTPPFVPPGPSPYVGTGMQEYRKLRSTLDKSHSELKKNLKNETLKEVDELKSEAGLPGKAVSANDIRDEKSIVDALMDAKAKSLKAIEDRPANLYTASDFPQKSESMYQSQLLASRKFYGEFLDRHMSELAKAYSADIYKAQIAILKQTSQELENKARSLEAEAQRAAAEVEADYKARKANVEKKVQSELDQAGNALPQLTNPTPEQWLERATQLVTQAIANKKKLQTANNALIAKAPNALEKQKATYNADLLVDEIASLQARLDKLNAETARRKEIARQAAIRAANTYAMPANGSVVATAAGRGLIQVAQGAASLAQAISDAIAVLGRVLASAPSVMAVGFASLTYSSRTAEQWQDQTPDSVRYALGMDAAKLGLPPSVNLNAVAKASGTVDLPMRLTNEARGNTTTLSVVSTDGVSVPKAVPVRMAAYNATTGLYEVTVPSTTAEAPPLILTWTPASPPGNQNPSSTTPVVPKPVPVYEGATLTPVKATPETYPGVITLPEDLIIGFPADSGIKPIYVMFRDPRDVPGAATGKGQPVSGNWLGAASQGEGAPIPSQIADKLRGKTFKNWRDFREQFWIAVANDPELSKQFNPGSLAVMRDGGAPYVRESEQAGGRIKIEIHHKVRIADGGGVYNMGNLVAVTPKRHIEIHKGGK | not soluble
MTETELSERLRTWLSQDNERMRALELVLQCAQVHDMPQWCIAAGFVRNLVWDKLHGFDRQPLNDIDLIYYCPLDARPERDWAIEACLRACAPELPWSVKNQARMHLKNHDNPYQSSSDAMAYWPEMETAVGVSLNPTLKTSASVIENLQIVAPFGLASLLALTLTRNPRRSLAVFEQRIIAKGWLSQYPQLVLAN | soluble
MRYVIAVKSPIYGKQGAFLAYQFAESLIKKEHEISQIFFFQDGVSNGNALVYPANDEVNLQKHWQMFSITYNVPLHLCVAASQRRGVVDNLTTPTTAHYNLAEGFTIAGLGEFIAASLNADRVITL | soluble
MSLNRAFRREQYARMVALSEPLIADYLGVRLPEPVSRIFVFDRREWLEANIVSFSQLFRPIEEMYEKNGGGRGALGVLMNDVSSKLLGVQIGGLLGYLAQRVLGQYDLSLLSAEATGGSLYFVEPNIARVQQQLGLSDEDFRLWITLHEMTHAFEFEAYPWVRTYFRELLEQNFALVSGQMLSSGNSLVDMLMRLLQGEGHHHHHH | not soluble
MTMVKTLVALATERMLLKTSGPTFLRGIEFMYAAGLAPDRLSVMMTSSHKYVLQFHSKCDIRPFAANYPNFGRVLRGIVHVREWRIKSIEFVNVAFYMRDVDNLERAIEKLGVELVLLRNCTYPGVQRGDEAVKFLSALNRKKQAVVCEYGDDRLKHRIGRRSSGNRTRRASRNGQEIVNPAIAPGAAAAAQPALEAAPAAPAAGAAAPEANAPQAAPPGIRRPIPLNPDQARHIIPQLLNPGGAQPAPVQDGPVRGPPGIINQGRVVVGAHVYEFRAADVPNADGVPAVHNINHLLNVLNENAGNDVRVIVLPSRVGEGLPIHFNNNDLIFRHQSRPQPAPQQAAAAAAAGAAPAVAVGAEPLPQPDDVQIAPIPADERQARYARVQARLGHMMNARMRQNQEDQQYYYDQQPPNLMVVGTAHAHYRRHMNAQAHQQQREPSWNNYAVANAPPAIIQRNLDAPAPMFGVAVNEPQVQRNGDDSNDSTDREEIYDAEQQRQEALRDLVADPEAQPNFAPVEAQAVDLDMLEEEGEDDEVMEVGGVDGQFMMDGRAVME | not soluble
MKKRYLVLTALLALSLAACSQEKTKNEDGETKTEQTAKADGTVGSKSQGAAQKKAEVVNKGDYYSIQGKYDEIIVANKHYPLSKDYNPGENPTAKAELVKLIKAMQEAGFPISDHYSGFRSYETQTKLYQDYVNQDGKAAADRYSARPGYSEHQTGLAFDVIGTDGDLVTEEKAAQWLLDHAADYGFVVRYLKGKEKETGYMAEEWHLRYVGKEAKEIAASGLSLEEYYGFEGGDYVD | not soluble
MGSDKIHHHHHHMNPADNILWGNIIKVHGVKGEVLVQVFSDDLTDYETLESVFVEIKQKQIPFFLSTFNFATQKRCILSFEDVTTVEQAKPLVGADIYIPVSKMAEADESRLSYQAIIGFEVMDTIQGKLGVISNFFQKTGQDLLMMDYQDAEILIPVTEEIVHSVDVKTKQVITTLPEGLIEIYLNEDASEPDAD | not soluble
MTCVGDIMLAGSATPTLSRSGYDYPFAKTAQELRRGDIAMGNLEAPLTERGTEYRDKTYRFRTNPIAAAALKRAGFSVLTLANNHMMDYGNEGLQDTLATLSRHGIAHTGAGASLAEARREAVVSVRGKRIAFLAYSLTFPSEFYAGPNRPGTAPGYAPHVREDIRRAKAEADYVVVSFHWGAERAEFPKQYQTETARLAIDAGADAIIGHHPHVLQGIEFYRGKPILYSLGNFAFGSRSTAADRSVMARLTLSDEETSVELVPLNVLHRETRYQPGILAGRKGAEVIERLNRLSQPFGTVISGSAGRFRARTSGADQRIATRLEHHHHHH | not soluble
MLIFRTSPMSRREKSLPIEPKYTKPQANGSSFPPIFTLEGSTPCKKTARKLIDPVVNSVDSLCYLARKIVKMQEEKKRQKSNSFLIDYLVGDNFITEFREQPAQASPAVDVEDPMVSLVLGCPFGAIGQERRMSQDFPFQRRSFDMVSNRTSTSESSSCSSTDNTYKNAGKFLSLQEYLEQNNLLPPSTMPFGENSGFHGYNPQMNVHNNSTRNGNVENREQRNNSTSPPRGNPPHPLCCCFCFGTASEFARLHTLPAPRKDDRGPWSDHCSKKRGRVVCPKLRSMVCGICGATGDNAHTTKHHLEAFGDD | not soluble
MGSDKIHHHHHHMIEVTQGSSPLVLGLPHTGTDVPAEVAQHLNDRGQALADTDWHIHDLYAGLVEGVTTVRTPIHRYVIDVNRDPEGVSLYPGQNTTTLVPLTDFDGHPIWQQEPDAAETAHRLETYHVPYHAALEAEMKRVAGLHGFAILYDCHSIRGDIPFLFEGRLPDFNVGTNLGATCAPSIEDMVFQRCQRAEGYTSVLNGRFKGGWTTRHYGRPDQGWHAIQMELAQATYCDEQPPWRYDPVRADRLRGHLTQILTDLTEWRPA | not soluble
MTKKQLHLVIVTGMSGAGKTVAIQSFEDLGYFTIDNMPPALLPKFLQLVEIKEDNPKLALVVDMRSRSFFSEIQAVLDELENQDGLDFKILFLDAADKELVARYKETRRSHPLAADGRILDGIKLERELLAPLKNMSQNVVDTTELTPRELRKTLAEQFSDQEQAQSFRIEVMSFGFKYGIPIDADLVFDVRFLPNPYYLPELRNQTGVDEPVYDYVMNHPESEDFYQHLLALIEPILPSYQKEGKSVLTIAMGCTGGQHRSVAFAKRLAQDLSKNWSVNEGHRDKDRRKETVNRS | not soluble
MDGNAPEPRYWEKMRLVAEVLKAVEGPIYIATHVDPDGDAIGSSLGLYRALKALGKEAYWVADPPRFLRFLPKEEEYSDPVEKLPPGATLVALDSAEPSRVVGVPVEGFVINIDHHGTNPRFGHLHVVDPSKAATAQMVKDLIDLLGVEWTAEIATPVLTGILTDTGNFRFANTTPEVLRVAAELLGYGVKLAELTDRLQFRPPSYFRLMGQVLSTVAFHFGGLLVTAHLPEEAGAEEDSDDFVGLIRYVEGSVVSVFLRKREEGVKVSIRSRGGVSAQNIALKLGGGGHVPAAGATLKGLDLDQAYERVLEAVREELTRAGYLLEHHHHHH | not soluble
MLETKDLNLFLGNKHVLKNISLSIPVRGEIIGIMGPNGAGKSSLIKSLIGEFNATGTKLLYNKPIQQQLQHITYIPQKAHIDLDFPISVEQVILSGCYKEIGWFRRPNKSARDKLKQLLSDLELESLRHRQISELSGGQLQRVLVARALMSESEVYFLDEPFVGIDFSSEKLIMTKIENLKQQGKLILIIHHDLSKAKQYFDRIILLNQTLRYFGDSEEAMSVTRLNETFMSSTDCSDPSQRSNITC | not soluble
DCSPLSLLFGHSDAVVQALYSNNPVLHCLNSALAQTAKALAGTRRDLRVLEVGAGTGATTRHLLPMLEEHLSEYRFTDVSNLFLTQAQEHFAAWPQLTCSMLDVNQPVDFSQHPAQGYDLVVAVNVMHDAAHVTRSLKRLHRLLRSGGHLLLLEATERDSALQLASIGFIEGLSNFEDERSEDDKAMLDLPRWRTAVQASGFSWVMNWPQQADDSM | not soluble
MSLRIAVVGATGRIGSKLTRTLLGAGHQVKALSRGGAALEALVEAGAEPFLGSFDTGAGALDTFFQDVEAAFLMVKTDWNNIEGHYPAVAQRFVDALRGSPVKLAVSLSAMGSDVDGKTGHFELFHHLDQRLNELNDIDMVHLRAAWFMENTLAWTASVAKYGRLAWFYEPDLKMPWVATDDIAGLAAKELTNPTGDHRVIRETGSEDLTMNELAAMIGREIGKPVEYRFIDRGRKEIENEYLARFGTPEHWLDDSRSADALNHGVVRFQGGDDVRPVLPTTMEAFLKTIWTPRYLEALASEEGHHHHHH | soluble
MQSPEKIDPTWEDSVIDSFISFVRSYDGDFTCIYKLADTVSDEYSLQKIIDFLSSTPQGKQAFQKRPQLGVVDLPKLHQLPTDTLGYVYADQMLQNNLQPLQSHEIDNDYQFFKTHITETHDLWHIVTGADTSILGEIQLEAFYVSQLYASRFWLALLAKNLLKAVIYDIELSTPYMDAISTGWVMAKQAKPLFGLEWNLLWEKPLADVRTSLNIILPVNLEHHHHHH | soluble
MAKYQTIEAAVRSEFGKGSARRARVAGQIPAVVYGADVESNLHVTIDHRTFAALVRQEGVNAVLELDIEGQKQLTMIKHIDQNVLTFHIDHLDLLAI | not soluble
MTYTSLKSPENQDYIYDLTIAHLYGNLMNTYGDNGNILMLKYVAEKLGARVTVDIVSINDTFEQDDYDIVFFGGGQDYEQSIVAKDLPSKKAALADYIANNKVVLAICGGFQLLGQYYVQANGVKIDGLGIMGHYTLNQHQNRFIGDIKIHNDEFNETYYGFENHQGRTFLSGDEKPLGRVVYGNGNNKEDQTEGVHYKNVYGSYFHGPILSRNVNLAYRLVTTALKKKYGSAISLPSYDDILKQEITEEYADLKSKASFNKV | not soluble
MSDDEIGDGARAFNQLIQALSLSIETETAVRTFTEMLVSELDVHQLTEQALALLLQHTGADGGAILIEVDGEIRVAASQGIGSAHTLANNDRVRSALRTERRHRVQLPEDLVVDGMLAQFRPKEVIIDPVRHKEVVLGAVVLASGQGFSAEDRNRLDVFERGLALALHNALLYDRLQTLAALDPLEHHHHHH | not soluble
MLLENFYKIIHIKEREDGKQEIEIELNPGHVLYQGHFPGQPVVPGVCTLQIIKESAEQIASQPLQYVQIASSKFLSAINPLETPLLQLFIRLEKTEEHLFKLQAEGICNGKEFIKLKAVLMASKYQLEHHHHHH | soluble
